We go through one molecule from CN116715768A.

This test has as its target EGFRvIII (表皮生长因子受体III型突变体) (human) (UniProt P00533). Description: flow cytometry; antibody supernatant on EGFRvIII-PBMC engineered cells, detected with anti-mouse-APC IgG. For orientation: Flow cytometry measures light scatter and fluorescence of single cells or particles in a stream.

B1: Anti EGFRvIII抗体 (抗EGFRvIII单克隆抗体) (antibody, V domains shown)
VH: QVQTQQSGTELVRPGALVKLSCKPSGFNIKDYYMHWVKQRPEQGLEWIGWIDPENGKTKYAPKFQGKAIITADRSSNTAYLQLSSLTSEDTAVYYCAGTADWGQGTTVTVSS
VL: DIQLTQSPLTLSVSIGQPASISCKSSQSLLHSDGETYLNWLLQRPGQSPKRLIYLVSKLDSGVPDRFTGTGSGTDFTLKISRVEAEDLGVYYCWQGKHFPYTFGGGTKLEI
In the case of B1, the 结合率 (APC阳性比率) turned out to be 93.7%.
